Data: the supplement of paper PMC7125110
± gives the standard error. This sample holds only a part of the variants without activity.

B1: glmS ribozyme (parent)
chain: AUAAAAGCGCCAGAACUACAGAAAUGUAGUUGACGAGGAGGAGGUUUAUCGAAUUUUCGGCGGAUGCCUCCAAA

Variants of: B1
Experiment: self-cleavage kobs at 2500 uM GlcN6P; higher = faster cleavage; RNA array
Settings: with glucosamine-6-phosphate
Procedure, shortened: (§1)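 Barcoded ribozyme variants were transcribed in situ on sequenced MiSeq chips by E. coli RNA polymerase. At 37 °C, a hybridised Cy3 probe tracked them while glucosamine-6-phosphate (40 μM to 10 mM) in HEPES/KCl/Mg(OAc)2 buffer flowed in and tiles were imaged over ~14 h. Per-tile medians of signals normalised to baseline and to non-cleaving reference variants were fit to one- or two-exponential decays, giving kobs. kcat and KM came from weighted Michaelis–Menten fits across concentrations.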

Row | Variant | self-cleavage kobs at 2500 uM GlcN6P [s⁻¹]
1 | C34A G41U A42C | < 1e-05
2 | G40A G44A | 4.13e-05 ± 1.2e-05
3 | A39U G66A C70G | 0.000771 ± 0.00023
4 | G37U G38U U49C G59A | < 1e-05
5 | G38A G62A C67G | < 1e-05
6 | G40C A52G U55G | 4.2e-05 ± 1.1e-05
7 | G35U A36U A53U G63C | < 1e-05
8 | G37A A53G U55G U65G | 8.03e-05 ± 1.8e-05
9 | G37A G62C A64U | < 1e-05
10 | G35U U56A C71U | < 1e-05
11 | G38A U45C A52U | < 1e-05
12 | G37A A64C C67G | < 1e-05
13 | C34A C68G | < 1e-05
14 | G38U G40U A48U C68G | < 1e-05
15 | G37U U46G A52U U57A | < 1e-05
16 | G35C A48G A53U | < 1e-05
17 | G37A G40A U56G | 5.62e-05 ± 1.8e-05
18 | G37A G40A U56A | 0.000109 ± 1.8e-05
19 | A36U G63A | < 1e-05
20 | G37C G41U A48C | < 1e-05
21 | A39U G41C A52U | < 1e-05
22 | A39C U57A C67G | < 1e-05
23 | G38C U57A G63U | < 1e-05

Row | Variant | self-cleavage kobs at 2500 uM GlcN6P [s⁻¹]
24 | C34U G63U A64G | 0.000111 ± 3.8e-05
25 | G38C U46G C68G | < 1e-05
26 | A39C A53U A64G | 0.00188 ± 0.00024
27 | G37C G38U G51A U54G | < 1e-05
28 | G38C U47C U49A | < 1e-05
29 | G38U U45A C71A | < 1e-05
30 | A39G G41U U69A | 5.05e-05 ± 2.2e-05
31 | G37U U49G U57C | < 1e-05
32 | C34U C50A U69C | 0.000135 ± 6.7e-05
33 | G40A U47C U54C | 0.00058 ± 0.00013
34 | G35A G38C C58U | < 1e-05
35 | G40A U47A U49A C70A | < 1e-05
36 | A39U U56C C67G | 3.66e-05 ± 9.2e-06
37 | A39U G51C C71G | < 1e-05
38 | A36U C58G C70U | 6.88e-05 ± 2.4e-05
39 | A36C G59U G60U C70G | < 1e-05
40 | G38C A39U A53G U65C | < 1e-05
41 | C34A G37A G43U | < 1e-05
42 | G38U U55A G62A U69G | 0.0012 ± 0.00058
43 | C34A G59A C70A | < 1e-05
44 | G38U G43A U47C C67U | < 1e-05
45 | A39G U55C A64G | 0.00694 ± 0.0013
46 | G37C U47C C58A | < 1e-05

Row | Variant | self-cleavage kobs at 2500 uM GlcN6P [s⁻¹]
47 | G35U G40A G41U U45G A53G | < 1e-05
48 | G37A G38C U56G C70G | 6.06e-05 ± 1.5e-05
49 | C34A U49G | < 1e-05
50 | A36G A52U A64G | < 1e-05
51 | G38U C50G G63C | 7.85e-05 ± 2.7e-05
52 | G40C U47A U65G | 0.000652 ± 0.00017
53 | G40A U65C | 0.000394 ± 0.00015
54 | C34A G37U A39U U57C C67A | < 1e-05
55 | C34G U47C G66A | < 1e-05
56 | G35A U56A C68G | < 1e-05
57 | A39G A42U C67U | 9.25e-05 ± 2.6e-05
58 | G38U A39G C58U G59U | < 1e-05
59 | C34U C58U U65A | < 1e-05
60 | A39G A53C C70A | 0.000143 ± 4.2e-05
61 | A36C A48G C70G | < 1e-05
62 | G37A C50G U54C | 0.000123 ± 4.8e-05
63 | G38A C50A A64C | < 1e-05
64 | C34A U69A | < 1e-05
65 | G35A C50A U55C G62A A64U | < 1e-05
66 | C34U U54G G63U | < 1e-05
67 | G37A U49A A52G | < 1e-05
68 | G40A U47C C58U | < 1e-05
69 | A36G G41A C67U | < 1e-05

Row | Variant | self-cleavage kobs at 2500 uM GlcN6P [s⁻¹]
70 | G40A U55C C58G | < 1e-05
71 | C34U G60A C68U | < 1e-05
72 | C34U U47G G51U | < 1e-05
73 | G38U U65A C70G | 0.000107 ± 3.6e-05
74 | G37C A42C U69A | < 1e-05
75 | G37C A42C A48C A64U | < 1e-05
76 | C34U G35A G44C U54A U65G | < 1e-05
77 | G35U A48G C50G | 0.000328 ± 0.00011
78 | C34U G37A A39C | < 1e-05
79 | G38C G43C U56G C67A U69A | < 1e-05
80 | C34U A39C C68U | < 1e-05
81 | G37C U45A G60U A64C | < 1e-05
82 | A39U U46G C70A | 0.000101 ± 2.8e-05
83 | G37C C50U U69G | 6.01e-05 ± 2.6e-05
84 | G35U A36U G43A C50G U69G | < 1e-05
85 | G38A G44C | < 1e-05
86 | G37U A42C U47A A48U U56A | < 1e-05
87 | G38C G41U A42G | < 1e-05
88 | A36C U49G G63C | < 1e-05
89 | C34U G51U A64C | < 1e-05
90 | G35U A36G U45C U65G | < 1e-05
91 | A39C U47A G66C | 0.000411 ± 8.5e-05
92 | G38U G41U C50G C68G | < 1e-05

Row | Variant | self-cleavage kobs at 2500 uM GlcN6P [s⁻¹]
93 | A39G G40U U54A | 0.000126 ± 6.2e-05
94 | A39C U45A C50G C70G | < 1e-05
95 | A39G U57A C61A | < 1e-05
96 | A36C G41A U56G G60A C68U | < 1e-05
97 | G35A A52U A53G C70U | < 1e-05
98 | A36C G43C C50G C68A | < 1e-05
99 | G38U G40U C70A | < 1e-05
100 | C34A G35C A39G G44U C67A C71G | < 1e-05
101 | G40C G41U C71A | 4.86e-05 ± 1.8e-05
102 | A36U U55C C70G | < 1e-05
103 | A36C G37A G38A U56A C68G | 6.64e-05 ± 2.3e-05
104 | A39U A42U U47A | 0.0025 ± 0.0012
105 | G37A A39G C71G | 0.000523 ± 0.00013
106 | A39U G41U C71A | 4.06e-05 ± 2e-05
107 | G37A A39C G40C G41A U45C G51U C58G | < 1e-05
108 | G35U U45C G51C G59U | < 1e-05
109 | A39U A42C U45G | 0.000613 ± 0.00019
110 | G35C U49G G62U C71G | < 1e-05
111 | G37A U49G C70U | 7.97e-05 ± 2e-05
112 | C34U A39C G59A | < 1e-05
113 | G35U U49C C50U C58G C61U | < 1e-05
114 | A36U A39G C67G | < 1e-05
115 | A39C A42C G66A | 0.00014 ± 4.5e-05

Row | Variant | self-cleavage kobs at 2500 uM GlcN6P [s⁻¹]
116 | G37A G44C | 4.54e-05 ± 1.3e-05
117 | G35C U47G C50G G66A | 7.72e-05 ± 2.7e-05
118 | C34U U45G | < 1e-05
119 | G38C G60C G66U | < 1e-05
120 | A36G G40U U45G | < 1e-05
121 | C34U G35A | < 1e-05
122 | A39C A42G A52U | 6.4e-05 ± 1.5e-05
123 | G35C A42U U55A C58G | < 1e-05
124 | A36U A42U G59U | < 1e-05
125 | A36G U49G U55G | < 1e-05
126 | A39G G40C G41C U46G A52G | < 1e-05
127 | A39U A42G A64U | 5.16e-05 ± 2.2e-05
128 | G38U U57A G60C G66U | < 1e-05
129 | G38C G41U A53C C68G | < 1e-05
130 | G35C A39U G59A | < 1e-05
131 | C34U C50U | < 1e-05
132 | C34G U57G C70G | 0.00021 ± 4.8e-05
133 | G35A A42G U45G | < 1e-05
134 | G35C G43U U69G | < 1e-05
135 | A39C G41C G66U | < 1e-05
136 | A39U G60A U65G | < 1e-05
137 | C34A G35A C67G C68A C71A | 0.000155 ± 6.4e-05
138 | G40C U47A G62C | < 1e-05

Row | Variant | self-cleavage kobs at 2500 uM GlcN6P [s⁻¹]
139 | C34U G40A G41C A48C A52G | < 1e-05
140 | A36C G37A A39C C50U A53C | < 1e-05
141 | C34A G38U C50G | 9.01e-05 ± 3e-05
142 | A39G U54A C71G | 0.00114 ± 0.00046
143 | G37C U55A A64G | 4.29e-05 ± 1.2e-05
144 | G35C U46G U56A | < 1e-05
145 | G40C G66C | 0.000833 ± 0.00021
146 | A36G U46A C70A | < 1e-05
147 | A39C G43U A48U G51U | < 1e-05
148 | G35U G66U C70U | < 1e-05
149 | G35C G44U A52G U54A C67U | < 1e-05
150 | A36C A39U G40C A42G U46C U69G | < 1e-05
151 | A39G G44U A53C | 0.000157 ± 4.5e-05
152 | G37A U49G A52U G59A | < 1e-05
153 | A39G G43C A52C | < 1e-05
154 | C34G G35C G66A | < 1e-05
155 | G37U G43C A48C C61U G63U | < 1e-05
156 | A36G C50G C67G | 0.000124 ± 5.6e-05
157 | G35U U54C C58A | < 1e-05
158 | A39G U55G A64G | 0.00731 ± 0.0025
159 | A36G A52C C68U | < 1e-05
160 | A39C U47C U55A | 0.000971 ± 0.00023

Variants of: B1
Experiment: self-cleavage kobs at 10000 uM GlcN6P; higher = faster cleavage; RNA array
Settings: with glucosamine-6-phosphate
Procedure, shortened: as §1

Row | Variant | self-cleavage kobs at 10000 uM GlcN6P [s⁻¹]
161 | G40A U65C | 0.000296 ± 6.1e-05
162 | A39G A53C C70A | 0.000165 ± 4.3e-05
163 | G35A C50A U55C G62A A64U | < 1e-05
164 | C34U U54G G63U | < 1e-05
165 | G37A U49A A52G | < 1e-05
166 | A39U U46G C70A | 0.000162 ± 3.2e-05
167 | G38A G44C | < 1e-05
168 | G35U A36G U45C U65G | < 1e-05
169 | A36C G41A U56G G60A C68U | < 1e-05
170 | G40C G41U C71A | 0.000104 ± 1.6e-05
171 | A39U A42U U47A | 0.00362 ± 0.0011
172 | C34U U45G | < 1e-05
173 | C34U G35A | < 1e-05
174 | A39U G60A U65G | < 1e-05
175 | A36C G37A A39C C50U A53C | < 1e-05
176 | G37C U55A A64G | 6.99e-05 ± 1.4e-05
177 | G40C G66C | 0.000531 ± 6.3e-05
